Molecular target: PSMA2 (subunit of the human 20S proteasome) (human, UniProt P25787 1-234)
Test: cryo-EM structure

Chain of PSMA2 (subunit of the human 20S proteasome) (P25787 whole entry): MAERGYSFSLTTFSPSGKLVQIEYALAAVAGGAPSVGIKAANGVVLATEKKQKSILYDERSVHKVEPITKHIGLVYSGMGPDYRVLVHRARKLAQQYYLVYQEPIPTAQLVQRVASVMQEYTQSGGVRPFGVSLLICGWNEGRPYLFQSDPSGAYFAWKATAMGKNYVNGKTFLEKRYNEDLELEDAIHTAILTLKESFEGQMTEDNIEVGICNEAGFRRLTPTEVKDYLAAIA

binding result: binds
Binder: H-DNDDDLYG-OH [VCP C-terminal HbYX peptide H-DNDDDLYG-OH]

— doi:10.1101/2025.04.01.646186 (bioRxiv, 2025)
